Data taken from patent US20060121042A1 (AstraZeneca / MedImmune, published 2006).
Residue numbers refer to the chain shown, from its start. One block for each binder: values may come before it.

Columns and labels:
rmEph B3 = molecular target: T1, rmEph B3 (mouse, UniProt P54754); assay: ELISA
T1 sequence (receptor, looked up): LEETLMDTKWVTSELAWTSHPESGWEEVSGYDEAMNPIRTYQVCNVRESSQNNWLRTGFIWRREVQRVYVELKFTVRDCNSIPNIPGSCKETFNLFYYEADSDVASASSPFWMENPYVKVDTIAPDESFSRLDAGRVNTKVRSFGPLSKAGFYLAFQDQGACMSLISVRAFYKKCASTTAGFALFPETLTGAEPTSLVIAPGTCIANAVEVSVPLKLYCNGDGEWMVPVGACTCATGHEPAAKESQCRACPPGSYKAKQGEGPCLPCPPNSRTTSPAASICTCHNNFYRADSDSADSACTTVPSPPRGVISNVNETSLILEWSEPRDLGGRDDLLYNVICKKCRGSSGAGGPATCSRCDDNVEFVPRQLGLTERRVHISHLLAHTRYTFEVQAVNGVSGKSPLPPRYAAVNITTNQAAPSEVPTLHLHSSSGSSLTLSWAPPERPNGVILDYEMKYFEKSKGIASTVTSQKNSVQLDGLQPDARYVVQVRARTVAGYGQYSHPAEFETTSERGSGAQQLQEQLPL

rrEphB1 = molecular target: T2, rrEphB1 (rat, UniProt P09759); assay: ELISA
T2 sequence (receptor, looked up): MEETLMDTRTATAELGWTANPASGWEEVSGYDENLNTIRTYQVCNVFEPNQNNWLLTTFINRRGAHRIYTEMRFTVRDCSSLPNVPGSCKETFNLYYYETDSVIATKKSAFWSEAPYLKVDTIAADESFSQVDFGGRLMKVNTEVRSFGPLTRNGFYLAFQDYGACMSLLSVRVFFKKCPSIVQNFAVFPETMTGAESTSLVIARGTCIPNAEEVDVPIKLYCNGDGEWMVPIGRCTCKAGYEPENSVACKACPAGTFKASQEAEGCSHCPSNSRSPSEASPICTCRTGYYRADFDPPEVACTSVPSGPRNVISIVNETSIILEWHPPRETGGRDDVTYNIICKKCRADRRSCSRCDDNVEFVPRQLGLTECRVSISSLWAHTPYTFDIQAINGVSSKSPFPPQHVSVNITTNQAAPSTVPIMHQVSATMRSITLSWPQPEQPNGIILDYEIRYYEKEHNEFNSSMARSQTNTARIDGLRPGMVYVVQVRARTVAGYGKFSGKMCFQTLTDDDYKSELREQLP

rmEph B2 = molecular target: T3, rmEph B2 (mouse, UniProt P54763); assay: ELISA
T3 sequence (receptor, looked up): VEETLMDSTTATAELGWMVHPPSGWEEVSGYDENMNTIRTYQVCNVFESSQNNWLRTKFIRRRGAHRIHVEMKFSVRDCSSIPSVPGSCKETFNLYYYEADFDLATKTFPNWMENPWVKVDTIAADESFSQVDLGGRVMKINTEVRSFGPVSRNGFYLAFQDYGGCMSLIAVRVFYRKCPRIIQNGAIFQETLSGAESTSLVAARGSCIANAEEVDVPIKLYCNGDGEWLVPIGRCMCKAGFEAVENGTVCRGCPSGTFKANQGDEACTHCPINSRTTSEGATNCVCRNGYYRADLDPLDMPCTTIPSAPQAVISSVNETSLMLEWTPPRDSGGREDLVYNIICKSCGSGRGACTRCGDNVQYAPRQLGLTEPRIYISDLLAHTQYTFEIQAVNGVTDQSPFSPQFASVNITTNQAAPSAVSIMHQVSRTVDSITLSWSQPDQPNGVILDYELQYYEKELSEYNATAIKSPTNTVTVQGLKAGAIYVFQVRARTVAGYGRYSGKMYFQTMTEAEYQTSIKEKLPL

hEphA2 = molecular target: T4, hEphA2 (human, UniProt P29317); assay: ELISA
T4 construct: also called human EphA2
T4 sequence (P29317 25-534 limits assumed): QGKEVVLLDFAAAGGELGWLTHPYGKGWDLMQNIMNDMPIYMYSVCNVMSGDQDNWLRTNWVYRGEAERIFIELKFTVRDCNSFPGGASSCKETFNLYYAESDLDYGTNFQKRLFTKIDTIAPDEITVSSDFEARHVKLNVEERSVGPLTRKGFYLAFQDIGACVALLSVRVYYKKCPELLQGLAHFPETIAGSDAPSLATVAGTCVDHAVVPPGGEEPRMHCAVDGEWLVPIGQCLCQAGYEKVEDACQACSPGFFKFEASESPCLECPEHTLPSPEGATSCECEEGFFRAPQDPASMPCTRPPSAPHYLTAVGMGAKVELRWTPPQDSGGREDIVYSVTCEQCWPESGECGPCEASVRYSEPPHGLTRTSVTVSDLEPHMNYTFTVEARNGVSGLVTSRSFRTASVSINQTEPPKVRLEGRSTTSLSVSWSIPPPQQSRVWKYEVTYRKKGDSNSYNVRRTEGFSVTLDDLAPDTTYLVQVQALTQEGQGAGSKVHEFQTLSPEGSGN

mEph A2 = mEph A2 (mouse, UniProt Q03145); assay: ELISA
mEph A2, sequence (Q03145 26-535 limits assumed): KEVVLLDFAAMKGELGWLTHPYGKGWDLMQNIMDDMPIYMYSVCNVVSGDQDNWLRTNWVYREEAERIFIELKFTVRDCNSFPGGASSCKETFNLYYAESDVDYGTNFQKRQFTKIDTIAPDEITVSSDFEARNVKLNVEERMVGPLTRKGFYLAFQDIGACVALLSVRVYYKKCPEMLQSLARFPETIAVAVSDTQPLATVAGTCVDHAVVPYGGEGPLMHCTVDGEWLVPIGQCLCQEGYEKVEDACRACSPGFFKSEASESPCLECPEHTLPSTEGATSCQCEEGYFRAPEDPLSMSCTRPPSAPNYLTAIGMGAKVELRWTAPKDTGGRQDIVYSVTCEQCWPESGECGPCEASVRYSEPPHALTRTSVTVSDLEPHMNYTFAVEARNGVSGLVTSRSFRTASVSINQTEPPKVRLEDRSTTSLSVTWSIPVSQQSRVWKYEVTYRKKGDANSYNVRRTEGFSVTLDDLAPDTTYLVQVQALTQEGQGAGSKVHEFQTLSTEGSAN

[1] = molecular target: T5, Human EphA4-Fc fusion protein (human, UniProt P54764 20-547); assay: BIAcore, IgG immobilized on the sensor chip, EphA4-Fc as analyte; koff and KD printed as ***, comment: off-rate below LOD
T5 construct: not shown: Fc portion of a human IgG1
T5 sequence (P54764 20-547): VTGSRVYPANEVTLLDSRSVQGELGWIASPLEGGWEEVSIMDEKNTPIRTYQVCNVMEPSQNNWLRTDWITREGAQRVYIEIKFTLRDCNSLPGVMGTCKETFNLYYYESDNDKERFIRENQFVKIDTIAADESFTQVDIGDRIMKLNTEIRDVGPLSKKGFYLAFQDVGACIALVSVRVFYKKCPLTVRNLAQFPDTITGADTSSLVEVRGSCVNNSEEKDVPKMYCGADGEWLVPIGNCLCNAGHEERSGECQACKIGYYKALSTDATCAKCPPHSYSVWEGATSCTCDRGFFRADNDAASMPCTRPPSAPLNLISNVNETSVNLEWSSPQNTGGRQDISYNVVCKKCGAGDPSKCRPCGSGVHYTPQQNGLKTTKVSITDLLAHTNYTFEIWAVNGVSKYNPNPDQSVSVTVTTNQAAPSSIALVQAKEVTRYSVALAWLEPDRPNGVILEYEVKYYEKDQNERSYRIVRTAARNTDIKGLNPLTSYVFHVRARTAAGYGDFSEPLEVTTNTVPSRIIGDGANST
Protocol: (§1) FIG. 15A-15B. […] Binding affinities were measured using the BIAcore assay. […] Variant kinetic measurements for human EphA4 and were obtained using BIAcore with immobilized variant antibodies and human EphA4-Fc and EphA4-His as analytes.

r murine EphA7 = molecular target: T6, r murine EphA7 (mouse, UniProt Q61772); assay: activity ELISA, IgG on coated antigen
T6 construct: recombinant Fc fusion (R&D Systems); also called rmuEphA7-Fc; mEphA7
T6 sequence (receptor-Fc fusion, looked up): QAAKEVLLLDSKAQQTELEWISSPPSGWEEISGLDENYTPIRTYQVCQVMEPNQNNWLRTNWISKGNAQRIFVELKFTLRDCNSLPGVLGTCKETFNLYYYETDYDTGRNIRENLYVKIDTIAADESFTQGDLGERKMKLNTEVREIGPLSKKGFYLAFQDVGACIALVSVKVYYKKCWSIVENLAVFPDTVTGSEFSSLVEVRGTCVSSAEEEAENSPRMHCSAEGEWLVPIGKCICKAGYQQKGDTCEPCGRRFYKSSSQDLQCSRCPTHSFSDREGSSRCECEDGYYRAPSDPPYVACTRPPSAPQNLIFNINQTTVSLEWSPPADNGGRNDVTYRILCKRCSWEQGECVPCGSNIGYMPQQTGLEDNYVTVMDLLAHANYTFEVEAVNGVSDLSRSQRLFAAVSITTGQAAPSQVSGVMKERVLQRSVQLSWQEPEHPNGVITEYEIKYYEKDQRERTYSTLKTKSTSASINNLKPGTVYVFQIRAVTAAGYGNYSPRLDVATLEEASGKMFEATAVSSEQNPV
Protocol: (§2) Secondary screening of IgG constructs of affinity optimized combinatorial variants with additional EphA receptors: With purified IgG constructs of the nine combinatorial variants, additional secondary screening assays were performed using the Activity ELISA (see above) and recombinant EphA receptor proteins. More precisely, Nunc Maxisorp plates were coated with the following rEphA proteins: rhuEphAl-Fc; 0.5 μg/well, rmuEphA2-Fc; 0.5 μg/well, rmuEphA3-Fc: 0.1 μg/well, rmuEphA4-Fc; 0.1 μg/well, rratEphA5-Fc; 0.5 μg/well, rmuEphA6-Fc; 0.5 μg/well, rmuEphA7-Fc; 0.1 μg/well, rEphA8; 0.2 μg/well (all R&D Systems), rhuEphA2-Fc; 0.5 μg/well, and rhuEphA4-His; 0.1 μg/well (both produced at MedImmune, Inc.). Plates were blocked with 3% BSA+0.1% Tween20 for 2 h. […] Incubation with a goat anti-human kappa horseradish peroxydase (HRP) conjugate then followed. HRP activity was detected with TMB substrate and the reaction quenched with 0.2 M H₂SO₄. Plates were read at 450 nm. Data was analyzed by normalizing Fab concentrations to the corresponding activity data (see FIGS. 12A-12J and 14).

r murine EphA4 = molecular target: T7, r murine EphA4 (mouse, UniProt Q03137); assay: activity ELISA, IgG on coated antigen
T7 construct: recombinant Fc fusion (R&D Systems); also called rmuEphA4-Fc; mEphA4
T7 sequence (Q03137 20-547 limits assumed): as the sequence (P54764 20-547) above, with P59A, N121S, V124G, R250Q, S251N, T270S, K378R, N406S counted along it
Protocol: as §2

r murine EphA3 = molecular target: T8, r murine EphA3 (mouse, UniProt P29319); assay: activity ELISA, IgG on coated antigen
T8 construct: recombinant Fc fusion (R&D Systems); also called rmuEphA3-Fc; mEphA3
T8 sequence (receptor-Fc fusion, looked up): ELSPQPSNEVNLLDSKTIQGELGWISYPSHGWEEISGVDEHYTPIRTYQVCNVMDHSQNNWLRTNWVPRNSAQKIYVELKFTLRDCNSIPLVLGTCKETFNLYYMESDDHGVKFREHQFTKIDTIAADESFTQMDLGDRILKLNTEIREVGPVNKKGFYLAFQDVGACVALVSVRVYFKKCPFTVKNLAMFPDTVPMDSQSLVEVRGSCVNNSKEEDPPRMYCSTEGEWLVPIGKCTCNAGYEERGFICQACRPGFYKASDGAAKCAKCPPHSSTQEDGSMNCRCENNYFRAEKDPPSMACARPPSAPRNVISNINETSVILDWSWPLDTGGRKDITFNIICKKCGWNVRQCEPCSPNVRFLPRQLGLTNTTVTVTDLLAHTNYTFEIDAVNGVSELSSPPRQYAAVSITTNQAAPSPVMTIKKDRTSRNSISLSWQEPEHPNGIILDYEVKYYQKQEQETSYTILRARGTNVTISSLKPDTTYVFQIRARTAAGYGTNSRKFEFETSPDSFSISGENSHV
Protocol: as §2

[2] = molecular target: T9, Human EphA4-His fusion protein (human, UniProt P54764 20-547); assay: BIAcore, IgG immobilized on the sensor chip, EphA4-his as analyte
T9 construct: also called rhuEphA4-His; not shown: Histidine tag
T9 sequence (P54764 20-547): as the sequence (P54764 20-547) above
Protocol: as §1

mEphA7 = molecular target: T10, mEphA7 (mouse, UniProt Q61772); assay: ELISA, receptor coated on the plate, purified IgG, anti-human kappa-HRP
T10 construct: part of an Fc fusion; also called rmuEphA7-Fc
T10 sequence (receptor-Fc fusion, looked up): T6 sequence (receptor-Fc fusion, looked up)
Protocol: as §2

mEphA4 = molecular target: T11, mEphA4 (mouse, UniProt Q03137); assay: as above
T11 construct: part of an Fc fusion; also called rmuEphA4-Fc
T11 sequence (Q03137 20-547 limits assumed): as the sequence (P54764 20-547) above, with P59A, N121S, V124G, R250Q, S251N, T270S, K378R, N406S counted along it
Protocol: as §2

mEphA3 = molecular target: T12, mEphA3 (mouse, UniProt P29319); assay: as above
T12 construct: part of an Fc fusion; also called rmuEphA3-Fc
T12 sequence (receptor-Fc fusion, looked up): T8 sequence (receptor-Fc fusion, looked up)
Protocol: as §2

mEph A4 = mEph A4 (mouse, UniProt Q03137); assay: ELISA
mEph A4, sequence (Q03137 20-547 limits assumed): as the sequence (P54764 20-547) above, with P59A, N121S, V124G, R250Q, S251N, T270S, K378R, N406S counted along it

mEph A7 = molecular target: T13, mEph A7 (mouse, UniProt Q61772); assay: ELISA
T13 sequence (receptor, looked up): T6 sequence (receptor-Fc fusion, looked up)

mEph A3 = molecular target: T14, mEph A3 (mouse, UniProt P29319); assay: ELISA
T14 sequence (receptor, looked up): T8 sequence (receptor-Fc fusion, looked up)

[3] = molecular target: T15, human EphA4 (construct not given) (human, UniProt P54764 20-547, limits assumed); assay: ELISA
T15 construct: also called EphA4 receptor
T15 sequence (P54764 20-547 limits assumed): as the sequence (P54764 20-547) above

binding result (rmEph B3): binds | binding result (rrEphB1): binds | ELISA O.D. value (rmEph B2): 0.535 | ELISA O.D. value (hEphA2): 0.783 | ELISA O.D. value (mEph A2): 0.792
B1: human Anti-Eph Monoclonal Antibody GEA44 (antibody, V domains shown)
VH: QVQLLQSGAEVKKPGASVKVPCKASGYTFTSYAMSWVRQAPGQGLEWMGWINTNTGNPTYAQGFTGRFVFSLDTSVSTAYLQISSLKAEDTAVYYCARVRTTVYGDGMDVWGQGTLVTVSS
VL: EIVLTQSPATLSVSPGERATLSCRASQSVSSNLAWYQQKPGQAPRLLIYGASTRATGIPDRFSASGSGTDFTLTISRVEPEDFAVYYCQQYGSSWTFGQGTKVEIK
notes: also called mAb GEA44; parental mAb GEA44

kon [1]: 464000 M⁻¹ s⁻¹ | binding result (r murine EphA7): binds | binding result (r murine EphA4): binds | binding result (mEphA7): binds | binding result (mEphA4): binds
B3: 3C6 IgG1 (affinity optimized combinatorial variant of mAb GEA44 in human IgG1 format) (antibody, V domains shown)
VH: B1 VH with Y32R, T101L
VL: B1 VL with L33P, A34P

ELISA O.D. value (rmEph B3): 0.377 | ELISA O.D. value (rrEphB1): 0.823 | ELISA O.D. value (rmEph B2): 0.264 | ELISA O.D. value (mEph A4): 0.253 | ELISA O.D. value (mEph A7): 0.132 | ELISA O.D. value (mEph A3): 0.116 | ELISA O.D. value [3]: 0.267
B4: GEA10-C12 (antibody, V domains shown)
VH: QVQLQESGPGLVKPSGTLSLTCAVSGGSISSSNWWSWVRQPPGKGLEWIGEIYHSGSTNYNPSLKSRVTISVDKSKNQFSLKLSSVTAADTAVYYCARGGIAAAGYWGLGYNWFDPWGQGTLVTVSS
VL: QSVLTQPPSVSGAPGQRVTISCTGSSSNIGAGYDVHWYQQLPGTAPKLLIYGNSNRPSGVPDRFSGSKSGTSASLAITGLQAEDEADYYCQSYDNSLSGSVVFGGGTKLTVL

The remaining lines, values behind:

B2: 6B7 IgG1 (affinity optimized combinatorial variant of mAb GEA44 in human IgG1 format) (antibody, V domains shown)
VH: B1 VH with Y32R, T101F
VL: B1 VL with L33P, S93P
kon [1]: 793000 M⁻¹ s⁻¹ | binding result (r murine EphA7): binds | binding result (r murine EphA4): binds | binding result (r murine EphA3): binds | Kd [2]: 1.2 nM | koff [2]: 0.000353 s⁻¹ | kon [2]: 295000 M⁻¹ s⁻¹ | binding result (mEphA7): binds | binding result (mEphA4): binds | binding result (mEphA3): binds

B5: 1D3 (antibody, V domains shown)
VH: EVQLLESGGGLVQPGGSLRLSCAASGFTFSPYDMLWVRQAPGKGLEWVSRIGSSGGYTKYADSVKGRFTISRDNSKNTLYLQMNSLRAEDTAVYYCARARSVVVSSDAFDIWGQGTMVTVSS
VL: DIQMTQSPSSVSASVGDRVTITCRASQGISKWLAWYQQKPGKAPKLLIFGASTLQSGVPSKFSGSKSGTDFTLTISSLQPEDSATYYCQQYNDYPLTFGGGTKVEIK
ELISA O.D. value (mEph A2): 0.316
